{"source": "patent US20210017257A1", "key": {"[1]": {"target": "SpA in the cell wall of Staphylococcus aureus (strain ATCC #25923 and clinical isolate OOX) (Staphylococcus aureus) (UniProt P38507)", "test": "flow cytometry: S. aureus strain ATCC #25923 incubated with biotinylated antibody (negative control), then streptavidin-APC"}, "[2]": {"target": "SpA in the cell wall of Staphylococcus aureus (strain ATCC #25923 and clinical isolate OOX) (Staphylococcus aureus) (UniProt P38507)", "test": "flow cytometry: S. aureus clinical isolate OOX incubated with biotinylated antibody (negative control), then streptavidin-APC"}, "[3]": {"target": "SpA in the cell wall of Staphylococcus aureus (strain ATCC #25923 and clinical isolate OOX) (Staphylococcus aureus) (UniProt P38507)", "test": "flow cytometry: S. aureus clinical isolate OOX pre-incubated with human sera for 15 minutes, then biotinylated MABp1-IgG3 (isotype-matched negative control), then streptavidin-APC"}, "[4]": {"target": "SpA in the cell wall of Staphylococcus aureus (strain ATCC #25923 and clinical isolate OOX) (Staphylococcus aureus) (UniProt P38507)", "test": "flow cytometry: S. aureus strain ATCC #25923 by the legend (sheet prints 25935) pre-incubated with human sera for 15 minutes, then biotinylated MABp1-IgG3 (isotype-matched negative control), then streptavidin-APC"}, "MABp1-IgG1 [5]": {"target": "MABp1-IgG1", "test": "flow cytometry: S. aureus strain ATCC #25923 incubated with unlabeled MABp1 (negative control), then biotinylated recombinant Fcγ receptor 1, then streptavidin-APC"}, "MABp1-IgG1 [6]": {"target": "MABp1-IgG1", "test": "flow cytometry: S. aureus clinical isolate OOX incubated with unlabeled MABp1 (negative control), then biotinylated recombinant Fcγ receptor 1, then streptavidin-APC"}}, "data": [{"substance": "MABp1-IgG1 (antibody)", "values": [{"measurement": "Mean:FL4-H", "setting": "[1]", "value": 46.7}, {"measurement": "Mean:FL4-H", "setting": "[2]", "value": 29.8}]}, {"substance": "MABp1-IgG3 (antibody)", "values": [{"measurement": "Mean:FL4-H", "setting": "[3]", "value": 19.1}, {"measurement": "Mean:FL4-H", "setting": "[4]", "value": 10.3}]}, {"substance": "biotinylated recombinant Fcγ receptor 1", "values": [{"measurement": "Mean:FL4-H", "setting": "MABp1-IgG1 [5]", "value": 19.8}, {"measurement": "Mean:FL4-H", "setting": "MABp1-IgG1 [6]", "value": 18.6}]}]}
